Patent publication US20240301046A1

Columns and labels:
[1] = target: biotin-labelled Aβ1-40 monomer (AnaSpec, AS-61483-01) (UniProt P05067); experiment: capture ELISA, antibody coated at 100 ng per well, biotin-Aβ40 monomer
Aβ1-42 protofibril = Aβ1-42 protofibril (UniProt P05067); experiment: direct ELISA, coated Aβ1-42 protofibril, 50 pmol per well
[2] = target: Aβ1-42 fibril (rPeptide, AF-1002) (UniProt P05067); experiment: direct ELISA, coated Aβ1-42 fibril, 50 pmol per well
[3] = target: Aβ1-40 monomer (rPeptide, A-1157-2) (UniProt P05067); experiment: direct ELISA, coated Aβ1-40 monomer, 50 pmol per well

Question: “non-conformation selective anti-Aβ antibody 6E10 (BioLegend, 803001)” was tested. Which EC50 [1] did it give?
Answer: Its EC50 is 0.067 nM.

Question: And the EC50 (Aβ1-42 protofibril)?
Answer: The EC50 was 0.05 nM.

Question: And the EC50 [2]?
Answer: Its EC50 is 0.08 nM.

Question: What about the EC50 [3] of the same substance?
Answer: The EC50 was 50 µM.
